# Assay results as given in patent US20060142193A1, “Selective inhibition of rock1 in cardiac therapy” (BAYLOR COLLEGE OF MEDICINE, priority 2004, published 2006).
# B1: ROCK1Δ1: C-terminally truncated mutant (1-1080) of ROCK1, constitutively active, mimics caspase 3 cleaved fragment (protein, UniProt Q13464 1-1080, looked up, fragment)
# chain: MSTGDSFETRFEKMDNLLRDPKSEVNSDCLLDGLDALVYDLDFPALRKNKNIDNFLSRYKDTINKIRDLRMKAEDYEVVKVIGRGAFGEVQLVRHKSTRKVYAMKLLSKFEMIKRSDSAFFWEERDIMAFANSPWVVQLFYAFQDDRYLYMVMEYMPGGDLVNLMSNYDVPEKWARFYTAEVVLALDAIHSMGFIHRDVKPDNMLLDKSGHLKLADFGTCMKMNKEGMVRCDTAVGTPDYISPEVLKSQGGDGYYGRECDWWSVGVFLYEMLVGDTPFYADSLVGTYSKIMNHKNSLTFPDDNDISKEAKNLICAFLTDREVRLGRNGVEEIKRHLFFKNDQWAWETLRDTVAPVVPDLSSDIDTSNFDDLEEDKGEEETFPIPKAFVGNQLPFVGFTYYSNRRYLSSANPNDNRTSSNADKSLQESLQKTIYKLEEQLHNEMQLKDEMEQKCRTSNIKLDKIMKELDEEGNQRRNLESTVSQIEKEKMLLQHRINEYQRKAEQENEKRRNVENEVSTLKDQLEDLKKVSQNSQLANEKLSQLQKQLEEANDLLRTESDTAVRLRKSHTEMSKSISQLESLNRELQERNRILENSKSQTDKDYYQLQAILEAERRDRGHDSEMIGDLQARITSLQEEVKHLKHNLEKVEGERKEAQDMLNHSEKEKNNLEIDLNYKLKSLQQRLEQEVNEHKVTKARLTDKHQSIEEAKSVAMCEMEKKLKEEREAREKAENRVVQIEKQCSMLDVDLKQSQQKLEHLTGNKERMEDEVKNLTLQLEQESNKRLLLQNELKTQAFEADNLKGLEKQMKQEINTLLEAKRLLEFELAQLTKQYRGNEGQMRELQDQLEAEQYFSTLYKTQVKELKEEIEEKNRENLKKIQELQNEKETLATQLDLAETKAESEQLARGLLEEQYFELTQESKKAASRNRQEITDKDHTVSRLEEANSMLTKDIEILRRENEELTEKMKKAEEEYKLEKEEEISNLKAAFEKNINTERTLKTQAVNKLAEIMNRKDFKIDRKKANTQDLRKKEKENRKLQLELNQEREKFNQMVVKHQKELNDMQAQLVEECAHRNELQMQL
# B2: full length ROCK1: full length human ROCK-1 expressed from pCAG-ROCK-1 (protein, UniProt Q13464 1-1354, looked up)
# chain: MSTGDSFETRFEKMDNLLRDPKSEVNSDCLLDGLDALVYDLDFPALRKNKNIDNFLSRYKDTINKIRDLRMKAEDYEVVKVIGRGAFGEVQLVRHKSTRKVYAMKLLSKFEMIKRSDSAFFWEERDIMAFANSPWVVQLFYAFQDDRYLYMVMEYMPGGDLVNLMSNYDVPEKWARFYTAEVVLALDAIHSMGFIHRDVKPDNMLLDKSGHLKLADFGTCMKMNKEGMVRCDTAVGTPDYISPEVLKSQGGDGYYGRECDWWSVGVFLYEMLVGDTPFYADSLVGTYSKIMNHKNSLTFPDDNDISKEAKNLICAFLTDREVRLGRNGVEEIKRHLFFKNDQWAWETLRDTVAPVVPDLSSDIDTSNFDDLEEDKGEEETFPIPKAFVGNQLPFVGFTYYSNRRYLSSANPNDNRTSSNADKSLQESLQKTIYKLEEQLHNEMQLKDEMEQKCRTSNIKLDKIMKELDEEGNQRRNLESTVSQIEKEKMLLQHRINEYQRKAEQENEKRRNVENEVSTLKDQLEDLKKVSQNSQLANEKLSQLQKQLEEANDLLRTESDTAVRLRKSHTEMSKSISQLESLNRELQERNRILENSKSQTDKDYYQLQAILEAERRDRGHDSEMIGDLQARITSLQEEVKHLKHNLEKVEGERKEAQDMLNHSEKEKNNLEIDLNYKLKSLQQRLEQEVNEHKVTKARLTDKHQSIEEAKSVAMCEMEKKLKEEREAREKAENRVVQIEKQCSMLDVDLKQSQQKLEHLTGNKERMEDEVKNLTLQLEQESNKRLLLQNELKTQAFEADNLKGLEKQMKQEINTLLEAKRLLEFELAQLTKQYRGNEGQMRELQDQLEAEQYFSTLYKTQVKELKEEIEEKNRENLKKIQELQNEKETLATQLDLAETKAESEQLARGLLEEQYFELTQESKKAASRNRQEITDKDHTVSRLEEANSMLTKDIEILRRENEELTEKMKKAEEEYKLEKEEEISNLKAAFEKNINTERTLKTQAVNKLAEIMNRKDFKIDRKKANTQDLRKKEKENRKLQLELNQEREKFNQMVVKHQKELNDMQAQLVEECAHRNELQMQLASKESDIEQLRAKLLDLSDSTSVASFPSADETDGNLPESRIEGWLSVPNRGNIKRYGWKKQYVVVSSKKILFYNDEQDKEQSNPSMVLDIDKLFHVRPVTQGDVYRAETEEIPKIFQILYANEGECRKDVEMEPVQQAEKTNFQNHKGHEFIPTLYHFPANCDACAKPLWHVFKPPPALECRRCHVKCHRDHLDKKEDLICPCKVSYDVTSARDMLLLACSQDEQKKWVTHLVKKIPKNPPSGFVRASPRTLSTRSTANQSFRKVVKNTSGKTS
# modifications: full-length
# Columns and labels:
# PTEN = PTEN activity by Malachite green assay in human HEK cells; type: cell-based; details: transfected HEK cells
# From the text: (§1) To further characterize the mechanism involved in this caspase activation, the present inventors transfected ROCKΔ1 in human HEK cells. […] Since AKT is activated by PI3K, PTEN acts as the upstream PI3K inhibitor. In specific embodiments of the invention, the repression of AKT activity caused by ROCKΔ1 may contribute to its pro-apoptotic effect through the increase in PTEN activity. […] Meanwhile, the decreased level of pAKT by ROCKΔ1 was reverted by blocking PTEN expression. Furthermore, the pAKT level was higher than the control level (FIG. 22D), which further supported this specific embodiment.
# Western blot and Malachite green assay. Anti-ROCK-1, caspase 3, PARP, His, α-actin antibodies (Santa Cruz), anti-phospho-AKTser473 (Cell Signaling) and anti-RTEN (Upstate) were purchased. Protein samples for Western blot were prepared and separated as described earlier (Chang et al., 2000). Even loadings were confirmed by Ponceau staining and antibody probed for actin. PTEN activity was evaluated by Malachite green assay (Upstate). 500 μg of cell lysate protein was used for immunoprecipitation.
# caspase 3 = assay: Caspase 3 activation in transfected neonatal rat cardiomyocytes (pCaspase3-sensor); type: cell-based; details: overexpression vs control plasmid
# From the text: To determine whether ROCK1 activation by caspase 3 cleavage is able to activate the caspase cascade, thereby constituting an amplification loop of apoptotic responses, the present inventors transfected rat neonatal cardiomyocytes with a plasmid encoding a C-terminally truncated mutant (1-1080) of ROCK1 (ROCK1Δ1) that corresponds closely to the fragment generated by caspase 3 cleavage (1-1113), and a second plasmid, pCaspase3-sensor encoding a fluorescent (EYFP) fusion protein (FIG. 9A). […] Caspase 3 activity in the transfected myocytes was monitored by counting the number of transfected cells with nuclear localization of fluorescent fusion protein.
# Apoptosis assay and immunofluorescence analysis. Apoptosis was evaluated using caspase 3 activity and poly(ADP-ribose) polymerase (PARP) cleavage with Western blot in human and mouse heart tissues. With regard to apoptotic cultured neonatal cardiomyocytes, a caspase 3 sensor (BD Biosciences) was introduced to detect the onset of caspase 3 activity (FIG. 9). The vector encodes EYFP (enhanced yellow fluorescent protein) fused with NES (nuclear export signal) and NLS (nuclear localization signal). A caspase 3 specific cleavage site is located between EYFP and NES. […] The quantification was performed by counting the number of transfected cells with the nuclear localization of fluorescent fusion protein over the total transfected cells. […]
# SRF = target: T1, SRF (Homo sapiens, UniProt P11831); assay: SRF cleavage by active caspase 3 in vitro in presence or absence of ROCK1Δ1; type: biochemical; details: in the presence of active ROCK1
# T1 sequence (P11831 1-508): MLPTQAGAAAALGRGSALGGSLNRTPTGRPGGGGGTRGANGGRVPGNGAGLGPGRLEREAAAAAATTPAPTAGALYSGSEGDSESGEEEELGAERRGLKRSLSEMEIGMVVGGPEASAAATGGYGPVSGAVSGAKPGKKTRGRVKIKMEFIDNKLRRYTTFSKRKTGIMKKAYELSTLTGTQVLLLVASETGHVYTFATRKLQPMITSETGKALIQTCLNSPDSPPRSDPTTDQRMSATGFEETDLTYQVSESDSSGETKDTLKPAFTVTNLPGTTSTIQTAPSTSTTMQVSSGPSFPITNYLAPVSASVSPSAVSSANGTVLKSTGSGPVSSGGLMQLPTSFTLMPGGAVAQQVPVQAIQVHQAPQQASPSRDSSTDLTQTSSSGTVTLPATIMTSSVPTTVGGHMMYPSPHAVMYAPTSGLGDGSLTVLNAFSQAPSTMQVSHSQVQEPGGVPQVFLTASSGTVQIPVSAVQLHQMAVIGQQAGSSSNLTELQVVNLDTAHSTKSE
# Description: Equal amounts of SRF were incubated with active caspase 3 in the presence or absence of ROCK1Δ1.
# phospho-AKT (pAKT) = assay: phospho-AKT level in human HEK cells (Western blot); type: cell-based; details: transfected HEK cells
# From the text: as §1
# Cell culture, plasmid constructs, and recombinant adenoviruses. Neonatal rat cardiomyocytes were isolated and cultured in DMEM/F12 medium (1:1) with 10% horse serum (DF10); cells were ready for transfection or virus infection 40 hours after plating. For immunostaining, cells were cultured on pre-coated (with 0.2% gelatin) coverslips. Transfections were performed using LipofectAMINE 2000 (Invitrogen) with Opti-MEM I Reduced Serum Medium (Invitrogen). After 6 hr or O/N, cells were cultured in DF10. With human embryonic kidney (HEK) A293T cells, cells were cultured in DMEM with 10% fetal bovine serum. […]
# Western blot and Malachite green assay. […] PTEN activity was evaluated by Malachite green assay (Upstate). […]
Molecule,PTEN activity (PTEN),caspase 3 activation (nuclear localization of EYFP fusion protein) (caspase 3),full-length SRF level after incubation with active caspase 3 (SRF),phospho-AKT (pAKT) level (phospho-AKT (pAKT))
B1,increased,induced significant caspase 3 activation,markedly decreased,decreased
B2,not found,no significant effect,,
